We go through 2 variants from IntAct's records for PubMed 22699936.

The chains are these.
B1: Centrosomal P4.1-associated protein (Homo sapiens), Q9HC77 (parent)
chain: MFLMPTSSELNSGQNFLTQWMTNPSRAGVILNRGFPILEADKEKRAAVDISTSFPIKGTHFSDSFSFINEEDSLLEEQKLESNNPYKPQSDKSETHTAFPCIKKGPQVAACHSAPGHQEENKNDFIPDLASEFKEGAYKDPLFKKLEQLKEVQQKKQEQLKRQQLEQLQRLMEEQEKLLTMVSGQCTLPGLSLLPDDQSQKHRSPGNTTTGERATCCFPSYVYPDPTQEETYPSNILSHEQSNFCRTAHGDFVLTSKRASPNLFSEAQYQEAPVEKNNLKEENRNHPTGESILCWEKVTEQIQEANDKNLQKHDDSSEVANIEERPIKAAIGERKQTFEDYLEEQIQLEEQELKQKQLKEAEGPLPIKAKPKQPFLKRGEGLARFTNAKSKFQKGKESKLVTNQSTSEDQPLFKMDRQQLQRKTALKNKELCADNPILKKDSKARTKSGSVTLSQKPKMLKCSNRKSLSPSGLKIQTGKKCDGQFRDQIKFENKVTSNNKENVTECPKPCDTGCTGWNKTQGKDRLPLSTGPASRLAAKSPIRETMKESESSLDVSLQKKLETWEREKEKENLELDEFLFLEQAADEISFSSNSSFVLKILERDQQICKGHRMSSTPVKAVPQKTNPADPISHCNRSEDLDHTAREKESECEVAPKQLHSLSSADELREQPCKIRKAVQKSTSENQTEWNARDDEGVPNSDSSTDSEEQLDVTIKPSTEDRERGISSREDSPQVCDDKGPFKDTRTQEDKRRDVDLDLSDKDYSSDESIMESIKHKVSEPSRSSSLSLSKMDFDDERTWTDLEENLCNHDVVLGNESTYGTPQTCYPNNEIGILDKTIKRKIAPVKRGEDLSKSRRSRSPPTSELMMKFFPSLKPKPKSDSHLGNELKLNISQDQPPGDNARSQVLREKIIELETEIEKFKAENASLAKLRIERESALEKLRKEIADFEQQKAKELARIEEFKKEEMRKLQKERKVFEKYTTAARTFPDKKEREEIQTLKQQIADLREDLKRKETKWSSTHSRLRSQIQMLVRENTDLREEIKVMERFRLDAWKRAEAIESSLEVEKKDKLANTSVRFQNSQISSGTQVEKYKKNYLPMQGNPPRRSKSAPPRDLGNLDKGQAASPREPLEPLNFPDPEYKEEEEDQDIQGEISHPDGKVEKVYKNGCRVILFPNGTRKEVSADGKTITVTFFNGDVKQVMPDQRVIYYYAAAQTTHTTYPEGLEVLHFSSGQIEKHYPDGRKEITFPDQTVKNLFPDGQEESIFPDGTIVRVQRDGNKLIEFNNGQRELHTAQFKRREYPDGTVKTVYANGHQETKYRSGRIRVKDKEGNVLMDTEL

In this experiment the parent is B1. The following applies: with tnks1_human TNKS.
Regarding G1303A, the “effect of a mutation on the interaction” value is on record as “disrupting interaction”.

Take D1302A: the “effect of a mutation on the interaction” value was “disrupting interaction”.
